According to patent US20050186197A1:
Positions of bridges follow the written chain, without caps; N, C: chain ends. No end group written: not given here.

Tests used:
TEM-1 β-lactamase = TEM-1 β-lactamase (UniProt P62593); assay: β-lactamase inhibition assay (cephalosporin C)
[1] = target: class C β-lactamase P99 from Enterobacter cloacae (Enterobacter cloacae) (UniProt P05364); assay: β-lactamase inhibition assay (cephalosporin C)
[2] = target: T1, TEM-1 β-lactamase, P62593; assay: ratio of Ki values, β-lactamase inhibition assay
T1 chain: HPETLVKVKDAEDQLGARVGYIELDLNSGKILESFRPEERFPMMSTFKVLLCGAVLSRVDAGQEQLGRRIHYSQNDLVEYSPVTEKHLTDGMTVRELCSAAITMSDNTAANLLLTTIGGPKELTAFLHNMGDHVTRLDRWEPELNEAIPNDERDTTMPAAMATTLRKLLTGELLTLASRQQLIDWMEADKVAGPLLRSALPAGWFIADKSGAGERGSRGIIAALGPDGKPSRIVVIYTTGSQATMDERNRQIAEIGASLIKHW

[3] = target: T2, class C β-lactamase P99 from Enterobacter cloacae (Enterobacter cloacae), P05364; assay: β-lactamase inhibition assay (cephalosporin C), Ki from IC50 by Cheng-Prusoff
T2 sequence (P05364 21-381 limits assumed): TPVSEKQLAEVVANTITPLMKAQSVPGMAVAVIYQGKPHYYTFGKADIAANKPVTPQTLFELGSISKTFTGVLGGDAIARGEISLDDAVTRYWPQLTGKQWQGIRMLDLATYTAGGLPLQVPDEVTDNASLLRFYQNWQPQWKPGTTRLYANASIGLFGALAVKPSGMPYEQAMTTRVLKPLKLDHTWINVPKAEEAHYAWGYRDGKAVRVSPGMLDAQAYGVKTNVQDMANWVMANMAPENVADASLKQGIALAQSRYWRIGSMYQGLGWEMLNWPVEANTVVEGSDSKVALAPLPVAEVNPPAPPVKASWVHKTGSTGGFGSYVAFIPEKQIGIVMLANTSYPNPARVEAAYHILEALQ

[4] = target: T1, TEM-1 β-lactamase, P62593; assay: as above
[5] = target: T1, TEM-1 β-lactamase, P62593; assay: β-lactamase inhibition assay, disulfide-bonded peptide
[6] = target: T2, class C β-lactamase P99 from …; assay: ratio of Ki values, β-lactamase inhibition assay

Molecule: RR-NH2 (peptide)
- Ki (TEM-1 β-lactamase): > 2000 µM
- Ki [1]: > 2000 µM

Molecule: RRGHYY-NH2 [RRGHYY-NH2]
- fold improvement in affinity relative to disulfide bonded …-NH2 [2]: 25 fold
- fold improvement in affinity relative to …-NH2 [2]: 2 fold
- Ki [3]: 140 µM
- Ki [4]: 136 µM

Molecule: HSACSDTRRGDCG-NH2 (disulfide 4-12 (inferred)) […-NH2 (disulfide-bonded soluble peptide)]
- Ki [5]: 3500 µM

Molecule: AAGHYY-NH2 [AAGHYY-NH2]
- fold increase in Ki relative to RRGHYY-NH2 [6]: 3 fold
- fold increase in Ki relative to RRGHYY-NH2 [2]: 3 fold
- Ki [3]: 468 µM
- Ki [4]: 438 µM

Molecule: HSAYSDTRRGDYG-NH2 […-NH2]
- fold increase in binding affinity relative to the cysteine peptide …-NH2 [2]: 10 fold
- Ki [3]: 254 µM
- Ki [4]: 298 µM
